The values that follow are results of earlier work, collected in paper PMC10532679.

In data set [1] the target is PKA-C (Homo sapiens) (UniProt P17612).
For data set [2] the target is unchanged. The source holds these as a separate data set.

Take PKA-RII (from UniProt P13861): in the data set with PKA-C (Homo sapiens) [1], the inhibitory constant (Ki) is below 1 nM. Moreover, the Kd in the data set with PKA-C (Homo sapiens) [2] was 0.1 nM.
